# The supplement of paper PMC5998384
# Key:
# [1] = test system: HeLa Kyoto; test: solubility change mitosis vs G1/S (difference of NP-40 vs SDS log2 ratios) (log2 ratio difference); higher = more soluble in mitosis
# [2] = test system: HeLa Kyoto; test: melting temperature (median over replicates), in situ; higher = more thermally stable
# [3] = test system: HeLa Kyoto; test: thermal stability score vs G1/S (z-score of summed log2 fold changes over temperatures); higher = more thermally stable than in G1/S
# [4] = test system: HeLa Kyoto; test: solubility in G1/S (NP-40 vs SDS abundance) (log2 ratio); higher = more soluble; details: cell cycle stage: G1/S
# [5] = cell cycle stage: early G1 (4.5 h after nocodazole release)
# 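For melting temperature (median over replicates), in situ in this document: HeLa Kyoto cells synchronized by double thymidine or nocodazole block, proteins quantified by TMT10plex mass spectrometry, three independent biological replicates.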
# 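For solubility change mitosis vs G1/S (difference of NP-40 vs SDS log2 ratios) in this document: synchronized HeLa Kyoto cells (double thymidine block for G1/S, nocodazole release for mitosis), protein amounts in NP-40 versus SDS lysates quantified by mass spectrometry, three biological replicates.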
# 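For solubility in G1/S (NP-40 vs SDS abundance) in this document: HeLa Kyoto cells arrested at G1/S by double thymidine block, proteins quantified by TMT10plex mass spectrometry in mild NP-40 versus SDS extracts, three biological replicates.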
# 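For thermal stability score vs G1/S (z-score of summed log2 fold changes over temperatures) in this document: synchronized HeLa Kyoto cells, proteins quantified by TMT10plex mass spectrometry, three biological replicates, mitosis taken 0.5 h after nocodazole release, G1/S directly after double thymidine block.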
sequence,measurement,setting,value
MMTSVSSDHCRGAREKPQISAAQSTQPQKQVVQATAEQMRLAQVIFDKNDSDFEAKVKQLMEVTGKNQDECIVALHDCNGDVNKAINILLEGNSDTTSWETVGCKKKNFAKENSENKENREKKSEKESSRGRGNNNRKGRGGNRGREFRGEENGIDCNQVDKPSDRGKRARGRGFGRGRGRGAGRFSTQGMGTFNPADYSDSTSTDVCGTKLVVWEAAQNGADEGTELASNTHNIAQDLSNKSSYGLKGAWKNSVEEWTTEDWTEDLSETKVFTASSAPAENHILPGQSIDLVALLQKPVPHSQASEANSFETSQQQGFGQALVFTNSQHNNQMAPGTGSSTAVNSCSPQSLSSVLGSGFGELAPPKMANITSSQILDQLKAPSLGQFTTTPSTQQNSTSHPTTTTSWDLKPPTSQSSVLSHLDFKSQPEPSPVLSQLSQRQQHQSQAVTVPPPGLESFPSQAKLRESTPGDSPSTVNKLLQLPSTTIENISVSVHQPQPKHIKLAKRRIPPASKIPASAVEMPGSADVTGLNVQFGALEFGSEPSLSEFGSAPSSENSNQIPISLYSKSLSEPLNTSLSMTSAVQNSTYTTSVITSCSLTSSSLNSASPVAMSSSYDQSSVHNRIPYQSPVSSSESAPGTIMNGHGGGRSQQTLDTPKTTGPPSALPSVSSLPSTTSCTALLPSTSQHTGDLTSSPLSQLSSSLSSHQSSLSAHAALSSSTSHTHASVESASSHQSSATFSTAATSVSSSASSGASLSSSMNTANSLCLGGTPASASSSSSRAAPLVTSGKAPPNLPQGVPPLLHNQYLVGPGGLLPAYPIYGYDELQMLQSRLPVDYYGIPFAAPTALASRDGSLANNPYPGDVTKFGRGDSASPAPATTPAQPQQSQSQTHHTAQQPFVNPALPPGYSYTGLPYYTGMPSAFQYGPTMFVPPASAKQHGVNLSTPTPPFQQASGYGQHGYSTGYDDLTQGTAAGDYSKGGYAGSSQAPNKSAGSGPGKGVSVSSSTTGLPDMTGSVYNKTQTFDKQGFHAGTPPPFSLPSVLGSTGPLASGAAPGYAPPPFLHILPAHQQPHSQLLHHHLPQDAQSGSGQRSQPSSLQPKSQASKPAYGNSPYWTN [UBAP2],solubility change mitosis (log2),[1],-0.0536
same,melting temperature,[2]; cell cycle stage: G1/S,57.3 °C
same,melting temperature,[2]; cell cycle stage: mitosis,56.8 °C
same,thermal stability score,[3]; [5],-3.11
same,thermal stability score,[3]; cell cycle stage: mitosis,-3.84
same,solubility in G1/S (log2),[4],0.0134
MVPRLLLRAWPRGPAVGPGAPSRPLSAGSGPGQYLQRSIVPTMHYQDSLPRLPIPKLEDTIRRYLSAQKPLLNDGQFRKTEQFCKSFENGIGKELHEQLVALDKQNKHTSYISGPWFDMYLSARDSVVLNFNPFMAFNPDPKSEYNDQLTRATNMTVSAIRFLKTLRAGLLEPEVFHLNPAKSDTITFKRLIRFVPSSLSWYGAYLVNAYPLDMSQYFRLFNSTRLPKPSRDELFTDDKARHLLVLRKGNFYIFDVLDQDGNIVSPSEIQAHLKYILSDSSPAPEFPLAYLTSENRDIWAELRQKLMSSGNEESLRKVDSAVFCLCLDDFPIKDLVHLSHNMLHGDGTNRWFDKSFNLIIAKDGSTAVHFEHSWGDGVAVLRFFNEVFKDSTQTPAVTPQSQPATTDSTVTVQKLNFELTDALKTGITAAKEKFDATMKTLTIDCVQFQRGGKEFLKKQKLSPDAVAQLAFQMAFLRQYGQTVATYESCSTAAFKHGRTETIRPASVYTKRCSEAFVREPSRHSAGELQQMMVECSKYHGQLTKEAAMGQGFDRHLFALRHLAAAKGIILPELYLDPAYGQINHNVLSTSTLSSPAVNLGGFAPVVSDGFGVGYAVHDNWIGCNVSSYPGRNAREFLQCVEKALEDMFDALEGKSIKS [CPT2],solubility change mitosis (log2),[1],-0.135
same,melting temperature,[2]; cell cycle stage: G1/S,50 °C
same,melting temperature,[2]; cell cycle stage: mitosis,50 °C
same,thermal stability score,[3]; [5],-0.368
same,thermal stability score,[3]; cell cycle stage: mitosis,0.841
same,solubility in G1/S (log2),[4],0.115
MAAAGWRDGSGQEKYRLVVVGGGGVGKSALTIQFIQSYFVTDYDPTIEDSYTKQCVIDDRAARLDILDTAGQEEFGAMREQYMRTGEGFLLVFSVTDRGSFEEIYKFQRQILRVKDRDEFPMILIGNKADLDHQRQVTQEEGQQLARQLKVTYMEASAKIRMNVDQAFHELVRVIRKFQEQECPPSPEPTRKEKDKKGCHCVIF [RRAS2],solubility change mitosis (log2),[1],-0.0849
same,melting temperature,[2]; cell cycle stage: G1/S,55.4 °C
same,melting temperature,[2]; cell cycle stage: mitosis,55.3 °C
same,thermal stability score,[3]; [5],1.24
same,thermal stability score,[3]; cell cycle stage: mitosis,1.12
same,solubility in G1/S (log2),[4],-0.172
MQMSYAIRCAFYQLLLAALMLVAMLQLLYLSLLSGLHGQEEQDQYFEFFPPSPRSVDQVKAQLRTALASGGVLDASGDYRVYRGLLKTTMDPNDVILATHASVDNLLHLSGLLERWEGPLSVSVFAATKEEAQLATVLAYALSSHCPDMRARVAMHLVCPSRYEAAVPDPREPGEFALLRSCQEVFDKLARVAQPGINYALGTNVSYPNNLLRNLAREGANYALVIDVDMVPSEGLWRGLREMLDQSNQWGGTALVVPAFEIRRARRMPMNKNELVQLYQVGEVRPFYYGLCTPCQAPTNYSRWVNLPEESLLRPAYVVPWQDPWEPFYVAGGKVPTFDERFRQYGFNRISQACELHVAGFDFEVLNEGFLVHKGFKEALKFHPQKEAENQHNKILYRQFKQELKAKYPNSPRRC [B4GAT1],solubility change mitosis (log2),[1],0.00523
same,melting temperature,[2]; cell cycle stage: G1/S,53.7 °C
same,melting temperature,[2]; cell cycle stage: mitosis,54.1 °C
same,thermal stability score,[3]; [5],0.621
same,thermal stability score,[3]; cell cycle stage: mitosis,0.329
same,solubility in G1/S (log2),[4],0.284
MPSALAIFTCRPNSHPFQERHVYLDEPIKIGRSVARCRPAQNNATFDCKVLSRNHALVWFDHKTGKFYLQDTKSSNGTFINSQRLSRGSEESPPCEILSGDIIQFGVDVTENTRKVTHGCIVSTIKLFLPDGMEARLRSDVIHAPLPSPVDKVAANTPSMYSQELFQLSQYLQEALHREQMLEQKLATLQRLLAITQEASDTSWQALIDEDRLLSRLEVMGNQLQACSKNQTEDSLRKELIALQEDKHNYETTAKESLRRVLQEKIEVVRKLSEVERSLSNTEDECTHLKEMNERTQEELRELANKYNGAVNEIKDLSDKLKVAEGKQEEIQQKGQAEKKELQHKIDEMEEKEQELQAKIEALQADNDFTNERLTALQVRLEHLQEKTLKECSSLEHLLSKSGGDCTFIHQFIECQKKLIVEGHLTKAVEETKLSKENQTRAKESDFSDTLSPSKEKSSDDTTDAQMDEQDLNEPLAKVSLLKDDLQGAQSEIEAKQEIQHLRKELIEAQELARTSKQKCFELQALLEEERKAYRNQVEESTKQIQVLQAQLQRLHIDTENLREEKDSEITSTRDELLSARDEILLLHQAAAKVASERDTDIASLQEELKKVRAELERWRKAASEYEKEITSLQNSFQLRCQQCEDQQREEATRLQGELEKLRKEWNALETECHSLKRENVLLSSELQRQEKELHNSQKQSLELTSDLSILQMSRKELENQVGSLKEQHLRDSADLKTLLSKAENQAKDVQKEYEKTQTVLSELKLKFEMTEQEKQSITDELKQCKNNLKLLREKGNNKPWPWMPMLAALVAVTAIVLYVPGLARASP [SLMAP],solubility change mitosis (log2),[1],0.0117
same,melting temperature,[2]; cell cycle stage: G1/S,50.6 °C
same,melting temperature,[2]; cell cycle stage: mitosis,51.2 °C
same,thermal stability score,[3]; [5],0.404
same,thermal stability score,[3]; cell cycle stage: mitosis,0.436
same,solubility in G1/S (log2),[4],0.152
MAVVIRLLGLPFIAGPVDIRHFFTGLTIPDGGVHIIGGEIGEAFIIFATDEDARRAISRSGGFIKDSSVELFLSSKAEMQKTIEMKRTDRVGRGRPGSGTSGVDSLSNFIESVKEEASNSGYGSSINQDAGFHTNGTGHGNLRPRKTRPLKAENPYLFLRGLPYLVNEDDVRVFFSGLCVDGVIFLKHHDGRNNGDAIVKFASCVDASGGLKCHRSFMGSRFIEVMQGSEQQWIEFGGNAVKEGDVLRRSEEHSPPRGINDRHFRKRSHSKSPRRTRSRSPLGFYVHLKNLSLSIDERDLRNFFRGTDLTDEQIRFLYKDENRTRYAFVMFKTLKDYNTALSLHKTVLQYRPVHIDPISRKQMLKFIARYEKKRSGSLERDRPGHVSQKYSQEGNSGQKLCIYIRNFPFDVTKVEVQKFFADFLLAEDDIYLLYDDKGVGLGEALVKFKSEEQAMKAERLNRRRFLGTEVLLRLISEAQIQEFGVNFSVMSSEKMQARSQSRERGDHSHLFDSKDPPIYSVGAFENFRHQLEDLRQLDNFKHPQRDFRQPDRHPPEDFRHSSEDFRFPPEDFRHSPEDFRRPREEDFRRPSEEDFRRPWEEDFRRPPEDDFRHPREEDWRRPLEEDWRRPLEEDFRRSPTEDFRQLPEEDFRQPPEEDLRWLPEEDFRRPPEEDWRRPPEEDFRRPLQGEWRRPPEDDFRRPPEEDFRHSPEEDFRQSPQEHFRRPPQEHFRRPPPEHFRRPPPEHFRRPPPEHFRRPPPEHFRRPPPEHFRRPPPEHFRRPPQEHFRRPPQEHFRRSREEDFRHPPDEDFRGPPDEDFRHPPDEDFRSPQEEDFRCPSDEDFRQLPEEDLREAPEEDPRLPDNFRPPGEDFRSPPDDFRSHRPFVNFGRPEGGKFDFGKHNMGSFPEGRFMPDPKINCGSGRVTPIKIMNLPFKANVNEILDFFHGYRIIPDSVSIQYNEQGLPTGEAIVAMINYNEAMAAIKDLNDRPVGPRKVKLTLL [RBM12B],solubility change mitosis (log2),[1],0.191
same,melting temperature,[2]; cell cycle stage: G1/S,47.6 °C
same,melting temperature,[2]; cell cycle stage: mitosis,49.7 °C
same,thermal stability score,[3]; [5],0.194
same,thermal stability score,[3]; cell cycle stage: mitosis,1.05
same,solubility in G1/S (log2),[4],-0.972
MAASGESGTSGGGGSTEEAFMTFYSEVKQIEKRDSVLTSKNQIERLTRPGSSYFNLNPFEVLQIDPEVTDEEIKKRFRQLSILVHPDKNQDDADRAQKAFEAVDKAYKLLLDQEQKKRALDVIQAGKEYVEHTVKERKKQLKKEGKPTIVEEDDPELFKQAVYKQTMKLFAELEIKRKEREAKEMHERKRQREEEIEAQEKAKREREWQKNFEESRDGRVDSWRNFQANTKGKKEKKNRTFLRPPKVKMEQRE [DNAJC8],solubility change mitosis (log2),[1],0.145
same,melting temperature,[2]; cell cycle stage: G1/S,50.1 °C
same,melting temperature,[2]; cell cycle stage: mitosis,51.5 °C
same,thermal stability score,[3]; [5],1.39
same,thermal stability score,[3]; cell cycle stage: mitosis,0.712
same,solubility in G1/S (log2),[4],0.748
